Biological target: T1, FimA (Salmonella Type-1 fimbrial protein, A chain), recombinant (Salmonella (serovar ), UniProt P37921 23-185)
T1 sequence: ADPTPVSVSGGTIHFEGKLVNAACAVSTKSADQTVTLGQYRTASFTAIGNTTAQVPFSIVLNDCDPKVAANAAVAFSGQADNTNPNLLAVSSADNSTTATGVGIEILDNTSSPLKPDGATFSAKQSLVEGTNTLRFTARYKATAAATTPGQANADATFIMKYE
Experiment: phage ELISA, antigen-coated wells, anti-M13-HRP, A405

B1: NBX0201 (VHH)
VHH: QVQLQESGGGLVQAGGSLRLSCAASTRTSSSSYTAWFRQAPGNEREFVASISYSGTTTYYADPVKGRFTISRDSAKNTVYLQMNSLKPDDTAVYYCAADRRSTIGSPRQQYAYWGQGTQVTVSS
notes: also called Clone 98
In the case of B1, the “binding over background (PBS-only wells)” value is reported as at least 4 fold.

B2: NBX0203 (VHH)
VHH: QVQLQQSGGGLVQAGGSLRLSCAASGRTSPSSYTAWFRQAPGNEREFVASISWSGTTTYYADPVKGRFTISRDNAKNTVYLQMNSLKPDDTAVYYCAADRRSTIGSPRQQYAYWGQGTQVTVSS
notes: also called Clone 100
B2 was tested, and the “binding over background (PBS-only wells)” value was at least 4 fold.

B3: NBX0202 (VHH)
VHH: QVQLQESGGGLVQAGGSLRLSCAASGRTSSSAYTAWFRQAPGNEREFVASISWSGTTTYHAHPVKGRFTIFRDNAKNTVYLQMNSLKPDDTGVYYCAADRRSTIGTPREQYAYWGQGTQVTVSS
notes: also called Clone 99
In the case of B3, the “binding over background (PBS-only wells)” value is reported as at least 4 fold.

From patent US20190202896A1 (NOVOBIND LIVESTOCK THERAPEUTICS, published 2019)
